Laboratory results taken from the supplement of paper PMC7125110.
± gives the standard error. This sample holds only a part of the variants without activity.

B1: glmS ribozyme (parent)
chain: AUAAAAGCGCCAGAACUACAGAAAUGUAGUUGACGAGGAGGAGGUUUAUCGAAUUUUCGGCGGAUGCCUCCAAA

Legend:
Details in all cases: with glucosamine-6-phosphate
glucosamine-6-phosphate [1] = variants of: B1; assay: self-cleavage kobs at 40 uM GlcN6P; higher = faster cleavage; RNA array
Method in brief: (§1)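 A hybridised Cy3 probe tracked barcoded ribozyme variants, transcribed in situ by E. coli RNA polymerase on sequenced MiSeq chips, at 37 °C. The variants received 40 μM to 10 mM glucosamine-6-phosphate in HEPES/KCl/Mg(OAc)2 buffer. kobs came from decay fits and kcat and KM from weighted Michaelis–Menten fits.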

glucosamine-6-phosphate [2] = variants of: B1; assay: self-cleavage kobs at 160 uM GlcN6P; higher = faster cleavage; RNA array
Method in brief: as §1

glucosamine-6-phosphate [3] = variants of: B1; assay: self-cleavage kobs at 640 uM GlcN6P; higher = faster cleavage; RNA array
Method in brief: as §1

glucosamine-6-phosphate [4] = variants of: B1; assay: self-cleavage kobs at 10000 uM GlcN6P; higher = faster cleavage; RNA array
Method in brief: as §1

glucosamine-6-phosphate [5] = variants of: B1; assay: self-cleavage kobs at 2500 uM GlcN6P; higher = faster cleavage; RNA array
Method in brief: as §1

Row | Variant | self-cleavage kobs at 40 uM GlcN6P (glucosamine-6-phosphate [1]) [s⁻¹] | self-cleavage kobs at 160 uM GlcN6P (glucosamine-6-phosphate [2]) [s⁻¹] | self-cleavage kobs at 640 uM GlcN6P (glucosamine-6-phosphate [3]) [s⁻¹] | self-cleavage kobs at 10000 uM GlcN6P (glucosamine-6-phosphate [4]) [s⁻¹] | self-cleavage kobs at 2500 uM GlcN6P (glucosamine-6-phosphate [5]) [s⁻¹]
1 | AUAAAAGCGCCAGAACUACAGAAAUGUAGUUGACGUGGAGGAGGUUUAUCGAAUUUUCGGCGGAUUCCUCCAAA [A36U G66U] | < 1e-05 | < 1e-05 | < 1e-05 | < 1e-05 | 
2 | AUAAAAGCGCCAGGACUACAGAAAUGUAGGUGACGAGGAGGAGGUUUAUCGAAUUUUCGGCGGAUGCCUCCAAA [A14G U30G] | 0.001 ± 0.00014 | 0.00212 ± 0.00046 | 0.00706 ± 0.0011 | 0.0807 ± 0.027 | 0.0179 ± 0.0054
3 | AUAAAAGGGCCAGGACUACAGAAAUGUAGUCGACGAGGAGGAGGUUUAUCGAAUUUUCGGCGGAUGCCUCCAAA [C8G A14G U31C] | < 1e-05 |  |  |  | 
4 | AUAAAAGCGCCAGAACUACAGAAAUGUAGCAGACUACGAGGAGGUUUAUCGAAUUUUCGGCGGAUGCCUCCAAA [U30C U31A G35U G37C] | < 1e-05 |  |  |  | 
5 | AUAAAGGCGCCAGAACUACAGAAAUGUAGUUGACGAGGAGGAGUUUUAUCGAAUUUUCGGUGGAUGCCUCCAAA [A6G G44U C61U] | < 1e-05 | < 1e-05 | < 1e-05 | < 1e-05 | < 1e-05
6 | AUAAAAGCGCCAGAGCUACAGAAAUGUAGUUGUCGAGGAGGAGGUUUAUCGAAUUUUCGGCGGAUGCCUCUAAA [A15G A33U C71U] | < 1e-05 |  |  | 5.87e-05 ± 1.3e-05 | 
7 | AUAAAAGCGCCAGAACUACAGAAAUGUAGUUGACGAGGAGGAGGUUUAUCGAAUCUUCGGCGAAUGCCUCCAAA [U55C G63A] | < 1e-05 | < 1e-05 |  | < 1e-05 | < 1e-05
8 | AUAAAAGGGCCAGAACUACAGAAAUGUAGUUGAAGAGGAGGAGGUUUAUCGAAUUUUCGGCGGAUGCCUCCAAA [C8G C34A] | < 1e-05 | < 1e-05 |  | < 1e-05 | < 1e-05
9 | AUAAAACCGCCAGAACUACAGAAAUGUAGUUGACGAGGAGGAGGUUUAUCGAAUUUUUGGCGGAUGCCUCCAAA [G7C C58U] | < 1e-05 |  |  | < 1e-05 | < 1e-05
10 | AUAAAAGCGCCACAACUACAGAAAUGUAGUUGACGAGGAGGAGGUUUAUCGUAUUUUCGGCGGAUGCCUCCAAA [G13C A52U] | < 1e-05 | < 1e-05 | < 1e-05 | < 1e-05 | 
11 | AUAAAAGUGCCAGAACUACAGAAAUGUAGUUGACGAGGAGGAGGUUUGUCGAAUUUUCGGCGGAUGCCUCCAAA [C8U A48G] | < 1e-05 | < 1e-05 |  | < 1e-05 | < 1e-05
12 | AUAAAAGCCCCAGAACUACAGAAAUGUAGUUGACGAGGAGGAGGUUUAUCGAAUUUUCGGCGACUGCCUGCAAA [G9C G63A A64C C70G] | < 1e-05 |  |  | < 1e-05 | 
